In publication PMC3859580, “The PS1 Hairpin of Mcm3 Is Essential for Viability and for DNA Unwinding In Vitro” (PLoS ONE, 2013):
Where a chain is given by its changes, count along the chain named. Names may count otherwise.

B1: Mcm3 (wild type), subunit of Saccharomyces cerevisiae Mcm2-7 (natural protein, S. cerevisiae, UniProt P24279 1-971, looked up)
chain: MEGSTGFDGDATTFFAPDAVFGDRVRRFQEFLDTFTSYRDSVRSIQVYNSNNAANYNDDQDDADERDLLGDDDGDDLEKEKKAASSTSLNILPHRIIISLDDLREFDRSFWSGILVEPAYFIPPAEKALTDLADSMDDVPHPNASAVSSRHPWKLSFKGSFGAHALSPRTLTAQHLNKLVSVEGIVTKTSLVRPKLIRSVHYAAKTGRFHYRDYTDATTTLTTRIPTPAIYPTEDTEGNKLTTEYGYSTFIDHQRITVQEMPEMAPAGQLPRSIDVILDDDLVDKTKPGDRVNVVGVFKSLGAGGMNQSNSNTLIGFKTLILGNTVYPLHARSTGVAARQMLTDFDIRNINKLSKKKDIFDILSQSLAPSIYGHDHIKKAILLMLMGGVEKNLENGSHLRGDINILMVGDPSTAKSQLLRFVLNTASLAIATTGRGSSGVGLTAAVTTDRETGERRLEAGAMVLADRGVVCIDEFDKMTDVDRVAIHEVMEQQTVTIAKAGIHTTLNARCSVIAAANPVFGQYDVNRDPHQNIALPDSLLSRFDLLFVVTDDINEIRDRSISEHVLRTHRYLPPGYLEGEPVRERLNLSLAVGEDADINPEEHSNSGAGVENEGEDDEDHVFEKFNPLLQAGAKLAKNKGNYNGTEIPKLVTIPFLRKYVQYAKERVIPQLTQEAINVIVKNYTDLRNDDNTKKSPITARTLETLIRLATAHAKVRLSKTVNKVDAKVAANLLRFALLGEDIGNDIDEEESEYEEALSKRSPQKSPKKRQRVRQPASNSGSPIKSTPRRSTASSVNATPSSARRILRFQDDEQNAGEDDNDIMSPLPADEEAELQRRLQLGLRVSPRRREHLHAPEEGSSGPLTEVGTPRLPNVSSAGQDDEQQQSVISFDNVEPGTISTGRLSLISGIIARLMQTEIFEEESYPVASLFERINEELPEEEKFSAQEYLAGLKIMSDRNNLMVADDKVWRV
notes: source: E. coli, purified, reconstituted into Mcm2-7 as described [27]
B2: Mcm3_(K499A), Mcm3 with the PS1 hairpin mutation (natural protein, S. cerevisiae, UniProt P24279 1-971, looked up)
chain: B1 chain with K499A
notes: Mcm3, S. cerevisiae, K499A; NdeI-SacI fragment of mcm3_(K499A)-YCplac111 in pET24a (pMD466); also called the Mcm3 subunit of Mcm2-7_(3K499A); source: E. coli BL21 DE3 Codon+, purified (ammonium sulfate, Q Sepharose, ssDNA-Sepharose, MonoQ, MonoS)
B3: Mcm2, subunit of Saccharomyces cerevisiae Mcm2-7 (natural protein, S. cerevisiae, UniProt P29469 1-868, looked up)
chain: MSDNRRRRREEDDSDSENELPPSSPQQHFRGGMNPVSSPIGSPDMINPEGDDNEVDDVPDIDEVEEQMNEVDLMDDNMYEDYAADHNRDRYDPDQVDDREQQELSLSERRRIDAQLNERDRLLRNVAYIDDEDEEQEGAAQLDEMGLPVQRRRRRRQYEDLENSDDDLLSDMDIDPLREELTLESLSNVKANSYSEWITQPNVSRTIARELKSFLLEYTDETGRSVYGARIRTLGEMNSESLEVNYRHLAESKAILALFLAKCPEEMLKIFDLVAMEATELHYPDYARIHSEIHVRISDFPTIYSLRELRESNLSSLVRVTGVVTRRTGVFPQLKYVKFNCLKCGSILGPFFQDSNEEIRISFCTNCKSKGPFRVNGEKTVYRNYQRVTLQEAPGTVPPGRLPRHREVILLADLVDVSKPGEEVEVTGIYKNNYDGNLNAKNGFPVFATIIEANSIKRREGNTANEGEEGLDVFSWTEEEEREFRKISRDRGIIDKIISSMAPSIYGHRDIKTAVACSLFGGVPKNVNGKHSIRGDINVLLLGDPGTAKSQILKYVEKTAHRAVFATGQGASAVGLTASVRKDPITKEWTLEGGALVLADKGVCLIDEFDKMNDQDRTSIHEAMEQQSISISKAGIVTTLQARCSIIAAANPNGGRYNSTLPLAQNVSLTEPILSRFDILCVVRDLVDEEADERLATFVVDSHVRSHPENDEDREGEELKNNGESAIEQGEDEINEQLNARQRRLQRQRKKEEEISPIPQELLMKYIHYARTKIYPKLHQMDMDKVSRVYADLRRESISTGSFPITVRHLESILRIAESFAKMRLSEFVSSYDLDRAIKVVVDSFVDAQKVSVRRQLRRSFAIYTLGH
notes: Mcm2, S. cerevisiae, recombinant subunit; source: E. coli, purified, reconstituted into Mcm2-7 as described [27]
B4: Mcm4, subunit of Saccharomyces cerevisiae Mcm2-7 (natural protein, S. cerevisiae, UniProt P30665 1-933, looked up)
chain: MSQQSSSPTKEDNNSSSPVVPNPDSVPPQLSSPALFYSSSSSQGDIYGRNNSQNLSQGEGNIRAAIGSSPLNFPSSSQRQNSDVFQSQGRQGRIRSSASASGRSRYHSDLRSDRALPTSSSSLGRNGQNRVHMRRNDIHTSDLSSPRRIVDFDTRSGVNTLDTSSSSAPPSEASEPLRIIWGTNVSIQECTTNFRNFLMSFKYKFRKILDEREEFINNTTDEELYYIKQLNEMRELGTSNLNLDARNLLAYKQTEDLYHQLLNYPQEVISIMDQTIKDCMVSLIVDNNLDYDLDEIETKFYKVRPYNVGSCKGMRELNPNDIDKLINLKGLVLRSTPVIPDMKVAFFKCNVCDHTMAVEIDRGVIQEPARCERIDCNEPNSMSLIHNRCSFADKQVIKLQETPDFVPDGQTPHSISLCVYDELVDSCRAGDRIEVTGTFRSIPIRANSRQRVLKSLYKTYVDVVHVKKVSDKRLDVDTSTIEQELMQNKVDHNEVEEVRQITDQDLAKIREVAAREDLYSLLARSIAPSIYELEDVKKGILLQLFGGTNKTFTKGGRYRGDINILLCGDPSTSKSQILQYVHKITPRGVYTSGKGSSAVGLTAYITRDVDTKQLVLESGALVLSDGGVCCIDEFDKMSDSTRSVLHEVMEQQTISIAKAGIITTLNARSSILASANPIGSRYNPNLPVTENIDLPPPLLSRFDLVYLVLDKVDEKNDRELAKHLTNLYLEDKPEHISQDDVLPVEFLTMYISYAKEHIHPIITEAAKTELVRAYVGMRKMGDDSRSDEKRITATTRQLESMIRLAEAHAKMKLKNVVELEDVQEAVRLIRSAIKDYATDPKTGKIDMNLVQTGKSVIQRKLQEDLSREIMNVLKDQASDSMSFNELIKQINEHSQDRVESSDIQEALSRLQQEDKVIVLGEGVRRSVRLNNRV
notes: Mcm4, S. cerevisiae, recombinant subunit; source: E. coli, purified, reconstituted into Mcm2-7 as described [27]
B5: Mcm7, subunit of Saccharomyces cerevisiae Mcm2-7 (natural protein, S. cerevisiae, UniProt P38132 1-845, looked up)
chain: MSAALPSIQLPVDYNNLFNEITDFLVTFKQDTLSSDATRNENEDENLDAENIEQHLLEKGPKYMAMLQKVANRELNSVIIDLDDILQYQNEKFLQGTQADDLVSAIQQNANHFTELFCRAIDNNMPLPTKEIDYKDDVLDVILNQRRLRNERMLSDRTNEIRSENLMDTTMDPPSSMNDALREVVEDETELFPPNLTRRYFLYFKPLSQNCARRYRKKAISSKPLSVRQIKGDFLGQLITVRGIITRVSDVKPAVEVIAYTCDQCGYEVFQEVNSRTFTPLSECTSEECSQNQTKGQLFMSTRASKFSAFQECKIQELSQQVPVGHIPRSLNIHVNGTLVRSLSPGDIVDVTGIFLPAPYTGFKALKAGLLTETYLEAQFVRQHKKKFASFSLTSDVEERVMELITSGDVYNRLAKSIAPEIYGNLDVKKALLLLLVGGVDKRVGDGMKIRGDINVCLMGDPGVAKSQLLKAICKISPRGVYTTGKGSSGVGLTAAVMKDPVTDEMILEGGALVLADNGICCIDEFDKMDESDRTAIHEVMEQQTISISKAGINTTLNARTSILAAANPLYGRYNPRLSPLDNINLPAALLSRFDILFLMLDIPSRDDDEKLAEHVTYVHMHNKQPDLDFTPVEPSKMREYIAYAKTKRPVMSEAVNDYVVQAYIRLRQDSKREMDSKFSFGQATPRTLLGIIRLSQALAKLRLADMVDIDDVEEALRLVRVSKESLYQETNKSKEDESPTTKIFTIIKKMLQETGKNTLSYENIVKTVRLRGFTMLQLSNCIQEYSYLNVWHLINEGNTLKFVDDGTMDTDQEDSLVSTPKLAPQTTASANVSAQDSDIDLQDA
notes: Mcm7, S. cerevisiae, recombinant subunit; source: E. coli, purified, reconstituted into Mcm2-7 as described [27]

Tests used:
Experiment in all cases: SEC; individual purified Mcm subunits mixed in equal molar ratios to reconstitute the hexameric complex; elution from a gel filtration column, fractions analysed by SDS-PAGE
Conditions in all cases: both partners purified
[1] = biological target: T1, Mcm6, subunit of Saccharomyces cerevisiae Mcm2-7 (S. cerevisiae, UniProt P53091 1-1017)
T1 construct: Mcm6, S. cerevisiae, recombinant subunit; source: E. coli, purified, reconstituted into Mcm2-7 as described [27]
T1 sequence (P53091 whole entry): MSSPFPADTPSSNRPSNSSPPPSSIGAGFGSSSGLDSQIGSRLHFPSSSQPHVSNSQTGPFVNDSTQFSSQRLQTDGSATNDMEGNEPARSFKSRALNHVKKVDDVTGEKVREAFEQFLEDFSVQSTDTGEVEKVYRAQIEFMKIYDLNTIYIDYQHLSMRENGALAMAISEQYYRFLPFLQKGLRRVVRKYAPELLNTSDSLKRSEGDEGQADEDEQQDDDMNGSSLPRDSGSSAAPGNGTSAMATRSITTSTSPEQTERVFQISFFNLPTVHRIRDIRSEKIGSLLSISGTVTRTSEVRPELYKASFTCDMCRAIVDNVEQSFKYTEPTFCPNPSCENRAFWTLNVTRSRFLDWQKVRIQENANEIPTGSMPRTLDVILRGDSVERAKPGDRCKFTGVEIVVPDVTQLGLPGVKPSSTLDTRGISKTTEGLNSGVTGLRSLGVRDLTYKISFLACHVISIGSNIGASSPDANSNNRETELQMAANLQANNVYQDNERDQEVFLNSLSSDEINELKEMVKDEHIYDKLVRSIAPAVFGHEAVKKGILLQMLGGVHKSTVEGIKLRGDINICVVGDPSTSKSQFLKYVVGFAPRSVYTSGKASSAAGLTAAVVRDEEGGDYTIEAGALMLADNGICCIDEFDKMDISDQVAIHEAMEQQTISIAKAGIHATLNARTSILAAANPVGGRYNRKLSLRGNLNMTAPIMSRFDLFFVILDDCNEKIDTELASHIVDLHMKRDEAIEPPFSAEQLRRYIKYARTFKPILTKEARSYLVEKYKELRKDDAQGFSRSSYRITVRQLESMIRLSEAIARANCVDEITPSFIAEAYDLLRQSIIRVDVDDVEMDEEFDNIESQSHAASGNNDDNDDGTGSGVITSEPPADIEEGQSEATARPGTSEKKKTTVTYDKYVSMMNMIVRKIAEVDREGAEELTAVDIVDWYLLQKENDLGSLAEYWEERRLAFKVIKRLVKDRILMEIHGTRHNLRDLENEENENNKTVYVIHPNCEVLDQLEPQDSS

[2] = biological target: B1
[3] = biological target: B2

Row | binding result [1] | binding result [2] | binding result [3] | Binder
1 | binds |  |  | B1
2 | binds |  |  | B2
3 |  | binds | binds | B3
4 |  | binds | binds | B4
5 |  | binds | binds | B5
